According to article PMC5962572, “Crystal structure of dihydrodipicolinate reductase (PaDHDPR) from Paenisporosarcina sp. TG-14: structural basis for NADPH preference as a cofactor” (Scientific Reports, 2018):
Each block holds one molecule with its values, some of them ahead of it.

Columns and labels:
PaDHDPR [1] = molecular target: T1, PaDHDPR (Paenisporosarcina sp. TG-14, UniProt A0A3B6UER2); test: isothermal titration calorimetry, one-site model; type: binding
T1 construct: gene dapB; full length, residues 1-264; pET-28a N-terminal His tag removed by thrombin; expressed in E. coli BL21(DE3); homotetramer
T1 sequence (A0A3B6UER2 2-265): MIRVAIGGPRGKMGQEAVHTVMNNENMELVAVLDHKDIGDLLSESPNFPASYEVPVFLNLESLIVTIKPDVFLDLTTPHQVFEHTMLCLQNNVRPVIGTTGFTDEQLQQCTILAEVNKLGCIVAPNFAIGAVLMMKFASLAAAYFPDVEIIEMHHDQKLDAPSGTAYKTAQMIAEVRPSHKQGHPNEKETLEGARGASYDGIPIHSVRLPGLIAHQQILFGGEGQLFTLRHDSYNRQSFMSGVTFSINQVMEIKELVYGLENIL

PaDHDPR [2] = molecular target: T2, PaDHDPR (Paenisporosarcina sp. TG-14, UniProt A0A3B6UER2, K37A); test: isothermal titration calorimetry, one-site model; type: binding
T2 construct: gene dapB; full length, residues 1-264; pET-28a N-terminal His tag removed by thrombin; expressed in E. coli BL21(DE3); homotetramer

PaDHDPR [3] = molecular target: T3, PaDHDPR (Paenisporosarcina sp. TG-14, UniProt A0A3B6UER2, H36A); test: isothermal titration calorimetry, one-site model; type: binding; conditions: 50 mM Tris-HCl, 150 mM NaCl, pH 8.0, 25 °C
T3 construct: gene dapB; full length, residues 1-264; pET-28a N-terminal His tag removed by thrombin; expressed in E. coli BL21(DE3); homotetramer

PaDHDPR [4] = molecular target: T1, PaDHDPR; test: isothermal titration calorimetry; type: binding; conditions: 50 mM Tris-HCl, 150 mM NaCl, pH 8.0, 25 °C; 80 μM protein, 1 mM ligand
PaDHDPR [5] = molecular target: T1, PaDHDPR; test: X-ray crystallography, co-crystals, […] Å (binary) and […] Å (with NADPH); type: binding; conditions: 10 mM DPA; substrate site of the C-terminal domain; competitive inhibitor
[6] = molecular target: Dihydrodipicolinate reductase from Paenisporosarcina sp. TG-14 (Paenisporosarcina sp. TG-14); test: AUC; analytical centrifugation of purified PaDHDPR; conditions not told in the main text
purified protein [7] = substrate: NC(=O)C1=CN([C@@H]2O[C@H](COP(=O)(O)OP(=O)(O)OC[C@H]3O[C@@H](n4cnc5c(N)ncnc54)[C@H](OP(=O)(O)O)[C@@H]3O)[C@@H](O)[C@H]2O)C=CC1; test: purified protein; type: biochemical, Paenisporosarcina sp. TG-14; conditions: NADPH varied, DHDP generated from ASA and pyruvate, 100 mM HEPES pH 7.5, 25 °C, varied: cofactor
purified protein [8] = substrate: NC(=O)C1=CN([C@@H]2O[C@H](COP(=O)(O)OP(=O)(O)OC[C@H]3O[C@@H](n4cnc5c(N)ncnc54)[C@H](O)[C@@H]3O)[C@@H](O)[C@H]2O)C=CC1; test: purified protein; type: biochemical, Paenisporosarcina sp. TG-14; conditions: NADH varied, DHDP generated from ASA and pyruvate, 100 mM HEPES pH 7.5, 25 °C, varied: cofactor
purified protein [9] = substrate: O=C(O)C1=N[C@H](C(=O)O)CC=C1; test: purified protein; type: biochemical, Paenisporosarcina sp. TG-14; conditions: ASA (L-aspartate-semialdehyde) concentration varied and printed as the substrate, ASA fully converted to DHDP by PaDHDPS with 1 mM pyruvate, NADPH, 100 mM HEPES pH 7.5, 25 °C

T3 sequence (A0A3B6UER2 entry or part of it H36A): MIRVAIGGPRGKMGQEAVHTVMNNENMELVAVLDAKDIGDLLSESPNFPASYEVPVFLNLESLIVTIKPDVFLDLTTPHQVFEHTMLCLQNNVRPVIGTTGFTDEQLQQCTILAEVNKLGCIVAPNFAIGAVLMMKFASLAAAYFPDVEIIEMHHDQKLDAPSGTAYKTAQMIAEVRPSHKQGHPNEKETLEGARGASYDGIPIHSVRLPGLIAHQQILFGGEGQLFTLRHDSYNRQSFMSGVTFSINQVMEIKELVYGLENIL
T2 sequence (A0A3B6UER2 entry or part of it K37A): as the sequence (A0A3B6UER2 entry or part of it H36A) above, with A35H, K36A counted along it

Kd (PaDHDPR [1]): 37 µM
Kd (PaDHDPR [2]): 236 µM
Molecule: NC(=O)C1=CN([C@@H]2O[C@H](COP(=O)(O)OP(=O)(O)OC[C@H]3O[C@@H](n4cnc5c(N)ncnc54)[C@H](OP(=O)(O)O)[C@@H]3O)[C@@H](O)[C@H]2O)C=CC1 [NADPH]
no binding detected (PaDHDPR [3]): H35A mutation induced complete loss of binding affinity

no binding detected (PaDHDPR [4]): NADH did not bind to PaDHDPR
Molecule: NC(=O)C1=CN([C@@H]2O[C@H](COP(=O)(O)OP(=O)(O)OC[C@H]3O[C@@H](n4cnc5c(N)ncnc54)[C@H](O)[C@@H]3O)[C@@H](O)[C@H]2O)C=CC1 [NADH]

Continued, molecule first:

Molecule: O=C(O)c1cccc(C(=O)O)n1 [DPA]
X-ray crystallography, co-crystals, 1.8 Å (binary) and 2.1 Å (with NADPH) (PaDHDPR [5]): Electron density corresponding to DPA was observed in the substrate-binding site of the C-terminal domain

Molecule: Dihydrodipicolinate reductase from Paenisporosarcina sp. TG-14 (enzyme)
stoichiometry N [6]: 4

B1: PaDHDPR (Paenisporosarcina sp. TG-14) (protein)
chain: T1 sequence (A0A3B6UER2 2-265)
notes: full length, residues 1-264; pET-28a N-terminal His tag removed by thrombin; expressed in E. coli BL21(DE3); homotetramer
Km (purified protein [7]): 22 ± 1.4 µM
kcat (purified protein [7]): 55 ± 1.2 s⁻¹
Km (purified protein [8]): 43 ± 8.9 µM
kcat (purified protein [8]): 7.1 ± 0.1 s⁻¹
Km (purified protein [9]): 12 ± 1.6 µM
kcat (purified protein [9]): 52 ± 1.1 s⁻¹
